According to patent US20240293576A1:

Key:
HIV virus pAD-8 (HIV-1) = assay: cell-based or functional assay
HIV virus pNL4-3 (HIV-1) = assay: cell-based or functional assay

Substance | AD-8 RLU (TZMbl luciferase, neutralisation by supernatant) (HIV virus pAD-8 (HIV-1)) | pNL4-3 RLU (TZMbl luciferase, neutralisation by supernatant) (HIV virus pNL4-3 (HIV-1))
anti-HIV broad-spectrum neutralizing antibody 10E8V4-5R+100cF | 976000 RLU | 121000 RLU
anti-HIV broad-spectrum neutralizing antibody PGT128 | 147000 RLU | 474000 RLU
